Source: patent US20190106487A1 (Sanofi, published 2019)

T1: human IL-1RAcP on 293T/17-FR cells (human, UniProt Q9NPH3 21-570)
T1 sequence (looked up): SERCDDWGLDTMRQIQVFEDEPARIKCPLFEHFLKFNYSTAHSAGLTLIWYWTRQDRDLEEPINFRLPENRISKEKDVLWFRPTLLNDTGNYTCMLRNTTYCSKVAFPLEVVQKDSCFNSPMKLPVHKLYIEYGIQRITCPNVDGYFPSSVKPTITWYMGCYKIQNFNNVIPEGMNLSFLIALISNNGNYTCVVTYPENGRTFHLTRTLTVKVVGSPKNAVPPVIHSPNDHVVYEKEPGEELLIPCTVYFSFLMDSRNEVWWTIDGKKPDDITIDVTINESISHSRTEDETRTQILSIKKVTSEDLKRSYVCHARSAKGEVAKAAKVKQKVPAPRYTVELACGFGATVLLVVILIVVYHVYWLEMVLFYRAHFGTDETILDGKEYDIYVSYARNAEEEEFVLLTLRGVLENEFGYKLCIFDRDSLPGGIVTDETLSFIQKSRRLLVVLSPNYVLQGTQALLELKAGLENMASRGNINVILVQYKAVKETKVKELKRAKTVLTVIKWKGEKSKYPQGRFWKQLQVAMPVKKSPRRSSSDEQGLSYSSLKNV

T2: rhIL-1RAcP/Fc Chimera (human, UniProt Q9NPH3 21-359)
T2 construct: also called P013_03; P013-03
T2 sequence (looked up): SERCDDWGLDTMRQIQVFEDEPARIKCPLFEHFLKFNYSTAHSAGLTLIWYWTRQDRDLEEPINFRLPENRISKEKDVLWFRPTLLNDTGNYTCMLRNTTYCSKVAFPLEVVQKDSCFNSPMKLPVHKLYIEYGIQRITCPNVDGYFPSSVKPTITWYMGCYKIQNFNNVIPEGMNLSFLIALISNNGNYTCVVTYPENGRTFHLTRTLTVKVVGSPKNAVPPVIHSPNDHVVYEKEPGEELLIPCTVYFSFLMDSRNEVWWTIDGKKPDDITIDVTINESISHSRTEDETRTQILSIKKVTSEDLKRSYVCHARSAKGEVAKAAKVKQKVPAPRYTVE

B1: P013.S.02.B.C04 (antibody, V domains shown)
VH: QQLEQSGGGLVKPGGSLELCCKASGFSLSSSYWICWVRQAPGKGLEWIGCIYAGSSGSTYYANWVNGRFTLSRDIDQSTGCLQLSSLTAADTAMYYCARSIVDFSSGWGDLWGQGTLVTVSS
VL: ALVMTQTPSPVSAAVGGTVTINCQASEDIYSNLAWYQQKPGQPPKLLMYGVSTLASGVPSRFSDSGSGTEFTLTISGLQSDDAATYYCLGVYTYISDVYYTFGGGTEVVVK
notes: rabbit monoclonal antibody; also called P013.A.00085.H07
B2: P013.S.01.B.G05 (antibody, V domains shown)
VH: LEQSGGGAEGGLVKPGGSLELCCKASGFSLSSAYWICWVRQAPGKGLEWVGCIYADSSSITYYASWVNGRFTLSRDIDQSTGCLQLNSLTAADTAMYYCARDYGGSGYNFNLWGQGTLVTVSS
VL: ALVMTQTPSPVSAAVGGTVTISCQASEDIYSNLAWYQQKRGQPPKLLIYYASTLASGVPSRFSGSGSGTEFTLTISGLQSDDAATYYCLGVCTYINANGWDNAFGGGTEVVVK
notes: rabbit monoclonal antibody; also called P013.A.00088.C10
B3: P013.S.01.B.G06 (antibody, V domains shown)
VH: QSLEESGGRLVTPGTPLTLTCTASGFTISSYYMSWVRQAPGKGLEWIGGIATDGNTYYANWAKGRFTVSRTSTTVDLKVTSPTAEDTATYFCARGGPAYSRGTHYAMDLWGPGTLVTVSS
VL: AYDMTQTPASVEVAVGGTVTIKCQASQSIYIYLAWYQQKPGQRPKQLIYDASKLASGVPSRFSGSGSGTEFTLTISGVESADAATYYCQQGATIWNVDNPFGGGTEVVVK
notes: rabbit monoclonal antibody; also called P013.A.00085.H05
B4: P013.S.01.B.B02 (antibody, V domains shown)
VH: LEQSGGGAEGGLVKPGGSLELCCKASGFSLSSSYWICWVRQAPGKGLEWIGCIYTGSSGITYYASWVNGRFTLSRDIDQSTGCLQLNSLTAADTAMYYCAKDGPSTLFNFWGQGTLVTVSS
VL: ALVMTQTPSPVSAAVGGTVTINCQASEDIYSNLAWFQQKPGQPPKLLIYRASTLASGVPSRFKGSGSGTEFTLTISGLQSDDAATYYCLGVYTYPSADNAFGGGTEVVVR
notes: rabbit monoclonal antibody; also called P013.A.00014.B03
B5: P013.S.01.B.H04 (antibody, V domains shown)
VH: QSVEESGGRLVTPGTPLTLTCTVSGFSLDSYAMGWVRQAPGKGLEWIGIINSYGSIYYASWAKGRFTISKTSTTVDLKMTSLTTEDTATYFCARSAYSNNGDRLHLWGQGTLVTVSS
VL: DIVMTQTPSPVSGAVGGTVTIKCQASEDIYSNLAWYQQKPGQPPKLLIYYVSTLESGVPSRFKGSRSGTDYTLTISDLESADAATYYCQCTEGGSGSDYTFGGGTEVVVK
notes: rabbit monoclonal antibody; also called P013.A.00014.G05

The binders below were run against T1, human IL-1RAcP on 293T/17-FR cells (assay: cell-based or functional assay).

| functional reporter gene assay (% inhibition), 0.04 µg/mL mAb [%] | functional reporter gene assay (% inhibition), 0.2 µg/mL mAb [%] | functional reporter gene assay (% inhibition), 1 µg/mL mAb [%] | functional reporter gene assay (% inhibition), 5 µg/mL mAb [%] | primary supernatant functional assay (% inh.), NF-kB luciferase reporter [%] | Binder |
| --- | --- | --- | --- | --- | --- |
| 29 | 26 | 40 | 91 | 65 | B1 |
| 21 | 50 | 82 | 93 | 81 | B2 |
| 69 | 49 | 94 | 96 | 89 | B3 |
| 75 | 84 | 94 | 98 | 97 | B4 |
| 10 | 49 | 49 | 54 | 35 | B5 |

What follows are binders tested against T2, rhIL-1RAcP/Fc Chimera (assay: ELISA, recombinant purified mAb).

| EC50 [µg/mL] | Binder |
| --- | --- |
| 0.758 | B1 |
| 0.817 | B2 |
| 0.115 | B3 |
| 0.175 | B4 |
| 0.062 | B5 |

These binders were tested against T2, rhIL-1RAcP/Fc Chimera (assay: ELISA, primary supernatant, coated hu-IL-1RAcP-Fc).
From the text: Microtiter plates were coated IL-1RACP and/or IL12Rβ1 protein (recombinant Fc chimeric conjugates of human IL-1RACP or IL12Rβ1). After a blocking process, specific antibodies from B-cell supernatants bind to the targets and are then detected by a POD-labeled anti-rabbit IgG antibody. The IL12Rβ1 binding was used as a counterscreen. IL-1RACP protein was tagged with a linker, huFc and His like the IL12Rβ1 protein. Antibodies which bind to the tag were positive in both assays, whereas antigen specific antibodies just bound to IL-1RACP and not to IL12Rβ1.
12.5 μL 0.5 μg/mL IL-1RACP protein in PBS was transferred to a microtiter plate, incubated and washed 3× with Wash Buffer. 90 μL Block Buffer was added to each well, incubated and washed. 12.5 μl Standard Antibody (rabbit mAb against IL-1RAcP, anti IL12Rbeta1 antibody: IL-12Rbeta1 antibody; GeneTex; Cat. No. GTX103917) or sample diluted in ELISA buffer was added, incubated and washed. 12.5 μl 1:5000 POD-Antibody (Anti-rabbit IgG, peroxidase-linked species-specific Fab2 fragment (from donkey) (ECL); assay dilution: 1:5000) in Elisa Buffer was added, incubated and washed. 15 μl TMB was added and 15 μl HCl was added after sufficient development. Absorbance (Optical Density O.D.) was read at 450 nm/620 nm.

| hu-IL1RaP ELISA (OD) | Binder |
| --- | --- |
| 2.7 | B1 |
| 3.3 | B2 |
| 3.8 | B3 |
| 3.6 | B4 |
| 3.7 | B5 |
